Target: cyclin T1 (UniProt O60563)
Assay: co-immunoprecipitation (anti-Flag IP, western blot quantification)
Details: 293T cells, lysed at 48 h posttransfection; 12% SDS-PAGE; parent: est. 100; read off a plot

UniProt O60563, sequence (O60563 whole entry): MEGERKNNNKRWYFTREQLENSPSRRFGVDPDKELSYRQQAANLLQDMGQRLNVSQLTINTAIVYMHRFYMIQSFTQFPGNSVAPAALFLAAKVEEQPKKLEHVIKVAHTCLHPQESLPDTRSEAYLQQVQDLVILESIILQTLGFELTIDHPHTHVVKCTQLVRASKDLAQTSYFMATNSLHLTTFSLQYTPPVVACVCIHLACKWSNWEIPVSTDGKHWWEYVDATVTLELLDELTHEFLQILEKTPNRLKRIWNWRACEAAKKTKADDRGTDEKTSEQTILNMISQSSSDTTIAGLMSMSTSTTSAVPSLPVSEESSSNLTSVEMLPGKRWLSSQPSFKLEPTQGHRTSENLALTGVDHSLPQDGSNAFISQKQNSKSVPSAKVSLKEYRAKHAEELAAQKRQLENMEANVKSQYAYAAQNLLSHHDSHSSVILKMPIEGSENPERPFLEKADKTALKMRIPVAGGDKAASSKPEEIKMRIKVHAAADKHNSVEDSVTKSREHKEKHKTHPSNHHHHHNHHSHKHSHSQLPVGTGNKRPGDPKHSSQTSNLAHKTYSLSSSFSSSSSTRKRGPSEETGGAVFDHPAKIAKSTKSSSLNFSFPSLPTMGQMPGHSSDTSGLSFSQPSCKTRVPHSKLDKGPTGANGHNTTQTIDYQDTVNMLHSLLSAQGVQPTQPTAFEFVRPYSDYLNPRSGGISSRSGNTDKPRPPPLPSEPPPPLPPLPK

| Substance | percent of parent |
| --- | --- |
| Flag-tagged HIV-1 Tat (WT) S16A | 48 % of WT Tat |
| Flag-tagged HIV-1 Tat (WT) S16D | 20 % of WT Tat |
| Flag-tagged HIV-1 Tat (WT) S46A | 45 % of WT Tat |
| Flag-tagged HIV-1 Tat (WT) S46D | 22 % of WT Tat |

— paper PMC5966876
